From paper PMC5207708 come the findings set out here.

One assay has as its target MIER3 isoform 1 (UniProt Q7Z3K6). Nature of the assay: co-IP; HEK293 cells transfected with the myc-tagged protein; lysis in 1% Triton X-100, 150 mM NaCl, 20 mM Tris-Cl pH 7.5, 1 mM EDTA; IP with 9E10 anti-myc overnight at 4°C; endogenous HDAC1 and HDAC2 by Western; band densitometry (HDAC:MIER ratio); also with or without 12.5 μM Ins(1,4,5,6)P4 during the IP (no substantial difference).

The next assay addresses MIER2 (UniProt Q8N344). Described as above.
Chain of UniProt Q8N344 (Q8N344 whole entry): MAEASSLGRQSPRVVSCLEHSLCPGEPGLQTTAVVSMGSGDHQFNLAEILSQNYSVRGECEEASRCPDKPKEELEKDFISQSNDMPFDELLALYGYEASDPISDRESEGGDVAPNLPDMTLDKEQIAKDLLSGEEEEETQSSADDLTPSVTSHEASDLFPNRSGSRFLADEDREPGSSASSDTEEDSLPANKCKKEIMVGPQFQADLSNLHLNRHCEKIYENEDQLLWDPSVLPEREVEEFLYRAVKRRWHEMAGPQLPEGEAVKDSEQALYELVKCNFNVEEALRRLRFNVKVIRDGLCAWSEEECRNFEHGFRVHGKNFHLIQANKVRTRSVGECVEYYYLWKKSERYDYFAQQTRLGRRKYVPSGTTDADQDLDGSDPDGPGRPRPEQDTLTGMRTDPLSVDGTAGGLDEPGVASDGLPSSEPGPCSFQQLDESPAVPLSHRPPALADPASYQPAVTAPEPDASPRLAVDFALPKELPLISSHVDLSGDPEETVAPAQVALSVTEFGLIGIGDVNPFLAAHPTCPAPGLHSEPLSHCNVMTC

Chain of UniProt Q7Z3K6 (Q7Z3K6 whole entry, canonical isoform): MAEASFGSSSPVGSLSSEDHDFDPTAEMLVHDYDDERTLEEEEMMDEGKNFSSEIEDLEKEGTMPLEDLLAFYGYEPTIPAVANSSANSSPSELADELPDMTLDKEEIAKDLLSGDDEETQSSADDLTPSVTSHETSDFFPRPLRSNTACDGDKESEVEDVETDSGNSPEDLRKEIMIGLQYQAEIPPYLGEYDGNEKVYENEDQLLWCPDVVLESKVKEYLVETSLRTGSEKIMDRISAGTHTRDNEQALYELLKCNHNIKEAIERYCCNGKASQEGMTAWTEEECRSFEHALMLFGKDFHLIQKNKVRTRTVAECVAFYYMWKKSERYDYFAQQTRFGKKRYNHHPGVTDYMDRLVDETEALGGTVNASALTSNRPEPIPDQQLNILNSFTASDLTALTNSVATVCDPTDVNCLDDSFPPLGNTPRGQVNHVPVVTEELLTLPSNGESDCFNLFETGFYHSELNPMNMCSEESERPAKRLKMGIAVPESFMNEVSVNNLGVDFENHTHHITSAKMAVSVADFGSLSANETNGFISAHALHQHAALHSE

“HDAC1 (from UniProt Q13547 1-482) (HEK293 cells)”: the HDAC:MIER ratio in the immunoprecipitate, percent of that in the MIER1α complex with MIER3 isoform 1 was found to be 9%.

Regarding “HDAC2 (from UniProt Q92769 1-488) (enzyme)”, the HDAC:MIER ratio in the immunoprecipitate, percent of that in the MIER1α complex with MIER2 stood at 20%. On to HDAC2 (from UniProt Q92769 1-488), for which, in the assay with MIER3 isoform 1, the HDAC:MIER ratio in the immunoprecipitate, percent of that in the MIER1α complex is 9%.
